Reference: paper PMC6508567

Columns and labels:
[1] = biological target: serpin Z4 (barley (Hordeum vulgare) cv. Harrington) (UniProt P06293); experiment: SPR; serpin Z4 immobilised by amine coupling on a CM5 chip, β-amylase injected at 2, 0.9, 0.4, 0.2 and 0.1 μM; PBS; Biacore T200
[2] = biological target: serpin Z4 (barley (Hordeum vulgare) cv. Harrington) (UniProt P06293); experiment: MST; serpin Z4 labelled with an NHS-ester fluorescent dye (70 nM), unlabelled β-amylase from 16 μM to 0.5 nM; PBS with 0.1% Tween-20; Monolith NT.115; three replicates combined

serpin Z4 (barley (Hordeum vulgare) cv. Harrington), sequence (P06293 whole entry): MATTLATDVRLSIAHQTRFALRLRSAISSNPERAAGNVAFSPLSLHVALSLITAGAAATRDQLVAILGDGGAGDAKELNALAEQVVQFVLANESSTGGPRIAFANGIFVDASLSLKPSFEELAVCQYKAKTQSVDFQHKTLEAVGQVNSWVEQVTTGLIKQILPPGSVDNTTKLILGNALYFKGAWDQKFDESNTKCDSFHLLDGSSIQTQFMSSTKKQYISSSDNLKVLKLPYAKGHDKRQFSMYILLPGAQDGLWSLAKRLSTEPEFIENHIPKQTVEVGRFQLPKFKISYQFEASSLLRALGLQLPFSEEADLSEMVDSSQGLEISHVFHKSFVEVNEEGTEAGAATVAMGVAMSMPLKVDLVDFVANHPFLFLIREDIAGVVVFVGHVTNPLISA

## β-amylase WT (from UniProt P16098 1-535) (enzyme)
[1]
  Kd: 316 nM
[2]
  Kd: 100 nM
